We go through 1 molecule from patent US20140212406A1 (INSTITUT NATIONAL DE LA SANTE ET DE LA RECHERCHE MEDICALE …, published 2014).

The experiment has as its target T1, rat wild type tPA (Rattus norvegicus), 6xHis-tagged (rat, UniProt P19637 33-559).
T1 construct: mature; Produced in HEK-293 cells and purified on Ni-NTA; also called wt-tPA; rat wt-tPA
Kind of experiment: binding of tPA variants to a solid-phase fibrin surface on PVC plates (3 independent experiments, 12 doses).

B1: fibrin (other)
chain 1: GPRVVERHQSACKDSDWPFCSDEDWNYKCPSGCRMKGLIDEVNQDFTNRINKLKNSLFEYQKNNKDSHSLTTNIMEILRGDFSSANNRDNTYNRVSEDLRSRIEVLKRKVIEKVQHIQLLQKNVRAQLVDMKRLEVDIDIKIRSCRGSCSRALAREVDLKDYEDQQKQLEQVIAKDLLPSRDRQHLPLIKMKPVPDLVPGNFKSQLQKVPPEWKALTDMPQMRMELERPGGNEITRGGSTSYGTGSETESPRNPSSAGSWNSGSSGPGSTGNRNPGSSGTGGTATWKPGSSGPGSTGSWNSGSSGTGSTGNQNPGSPRPGSTGTWNPGSSERGSAGHWTSESSVSGSTGQWHSESGSFRPDSPGSGNARPNNPDWGTFEEVSGNVSPGTRREYHTEKLVTSKGDKELRTGKEKVTSGSTTTTRRSCSKTVTKTVIGPDGHKEVTKEVVTSEDGSDCPEAMDLGTLSGIGTLDGFRHRHPDEAAFFDTASTGKTFPGFFSPMLGEFVSETESRGSESGIFTNTKESSSHHPGIAEFPSRGKSSSYSKQFTSSTSYNRGDSTFESKSYKMADEAGSEADHEGTHSTKRGHAKSRPV
chain 2: GHRPLDKKREEAPSLRPAPPPISGGGYRARPAKAAATQKKVERKAPDAGGCLHADPDLGVLCPTGCQLQEALLQQERPIRNSVDELNNNVEAVSQTSSSSFQYMYLLKDLWQKRQKQVKDNENVVNEYSSELEKHQLYIDETVNSNIPTNLRVLRSILENLRSKIQKLESDVSAQMEYCRTPCTVSCNIPVVSGKECEEIIRKGGETSEMYLIQPDSSVKPYRVYCDMNTENGGWTVIQNRQDGSVDFGRKWDPYKQGFGNVATNTDGKNYCGLPGEYWLGNDKISQLTRMGPTELLIEMEDWKGDKVKAHYGGFTVQNEANKYQISVNKYRGTAGNALMDGASQLMGENRTMTIHNGMFFSTYDRDNDGWLTSDPRKQCSKEDGGGWWYNRCHAANPNGRYYWGGQYTWDMAKHGTDDGVVWMNWKGSWYSMRKMSMKIRPFFPQQ
chain 3: YVATRDNCCILDERFGSYCPTTCGIADFLSTYQTKVDKDLQSLEDILHQVENKTSEVKQLIKAIQLTYNPDESSKPNMIDAATLKSRKMLEEIMKYEASILTHDSSIRYLQEIYNSNNQKIVNLKEKVAQLEAQCQEPCKDTVQIHDITGKDCQDIANKGAKQSGLYFIKPLKANQQFLVYCEIDGSGNGWTVFQKRLDGSVDFKKNWIQYKEGFGHLSPTGTTEFWLGNEKIHLISTQSAIPYALRVELEDWNGRTSTADYAMFKVGPEADKYRLTYAYFAGGDAGDAFDGFDFGDDPSDKFFTSHNGMQFSTWDNDNDKFEGNCAEQDGSGWWMNKCHAGHLNGVYYQGGTYSKASTPNGYDNGIIWATWKTRWYSMKKTTMKIIPFNRLTIGEGQQHHLGGAKQVRPE
For the molecule B1, the equilibrium dissociation constant (Kd) – broadly, the equilibrium constant for the complex coming apart – worked out at 0.26 nM. This lies in the sub-nanomolar range.
